Usually Km stands for the substrate concentration at which the rate is half of its maximum. Broadly, the kcat is the maximal rate divided by the concentration of active sites. One may read the kcat/Km as the second-order rate constant that governs catalysis at low substrate concentration.

Data on one protein can be found in article PMC3741120, “A Sperm–Plasma β-N-Acetyl-D-Hexosaminidase Interacting with a Chitinolytic β-N-Acetyl-D-Hexosaminidase in Insect Molting Fluid” (PLoS ONE, 2013).

Substrate in series [1]: CC(=O)N[C@H]1[C@H](Oc2ccc([N+](=O)[O-])cc2)O[C@H](CO)[C@H](O)[C@@H]1O
Description: purified protein. Type of series: biochemical, Ostrinia furnacalis. Conditions: Britton-Robinson buffer (pH of kinetics not given), 25°C, 30 min.

Substrate in series [2]: CC(=O)N[C@H]1[C@H](Oc2ccc([N+](=O)[O-])cc2)O[C@H](CO)[C@@H](O)[C@@H]1O
In words: purified protein. Type of series: biochemical, Ostrinia furnacalis. The settings on record: Britton-Robinson buffer (pH of kinetics not given), 25°C, 30 min.

B1: OfHex3 (Ostrinia furnacalis) (protein)
chain: NENEIKDPTPIVYEPSWVFKCIPNVGCQRAAHPQSMMTTNSSHVFYDSIDLCRTVCGRFGGIWPKPLTAGLSMQTVQMHPTHLRYDLSDVPAEARELIAQMTQVASSNLLAECRGNVTEVVDTPVVVYLVVTSENLDLTWDTDEKYDLDVQTKNQKVSVTITAATVYGARHGLETFTQLVTADRPEYSDQTRCALRVISGARIKDYPAYRHRGLVLDTSRHFIPMKDIKRTIDGMAASKLNVFHWHVTDSHSFPLESTRVPQFTRYGAYSSSEIYSAEEVRQLIKYAQIRGVRVVIEIDSPAHAGNGWQWGQDYGFGDLAVCVNTEPWRGLCIQPPCGQLNPANPTMYRVLRNLYKDLAEALPKPALFHMGGDEVFFPCWNSSEQIRAYMQEKGLNTTTEGFLRLWSEFHETILSIWDEELKAIGTDAQPVILWSSALTKSNYVQRFLNKDRYVIEVWEPLDSPLLMELLRLGYRTISVPKDVWYLDHGFWGSTKFSNWRRMYAYILPKSQHMLGGEVAMWSEYVDKEVLDTRIWPRAAAVAERLWADPMSTASAAEPRLQRFRSRLQARGLRPDAMSPAWCEQHDGRCL
notes: mature protein without signal peptide (residues 1-18 removed; ORF 609 residues); C-terminal 6xHis, N-terminal alpha-factor secretion signal; Pichia pastoris GS115; glycosylated, 75 kDa on SDS-PAGE
Turning to B1, in “purified protein [1]”, the Km is 2673 µM, the kcat came to 5.63 s⁻¹ and the kcat/Km was determined as 2110 M⁻¹ s⁻¹. In addition, in “purified protein [2]”, the Km is 1627 µM, the kcat amounted to 27.7 s⁻¹ and the kcat/Km is 17000 M⁻¹ s⁻¹.
